Laboratory results as given in publication PMC12051053.

Target: H3K9ac nucleosome with 147 bp DNA

Km for the nucleosome substrate in the Western blot-based deacylation assay: 0.088 µM
Substance: G60A SIRT6 (from UniProt Q8N6T7 2-355) (enzyme)
